# From IntAct's records for PubMed 12601044
# B1: Alpha-crystallin B chain (Homo sapiens), P02511 (parent)
# chain: MDIAIHHPWIRRPFFPFHSPSRLFDQFFGEHLLESDLFPTSTSLSPFYLRPPSFLRAPSWFDTGLSEMRLEKDRFSVNLDVKHFSPEELKVKVLGDVIEVHGKHEERQDEHGFISREFHRKYRIPADVDPLTITSSLSSDGVLTVNGPRKQVSGPERTIPITREEKPAVTAAPKK
# partner: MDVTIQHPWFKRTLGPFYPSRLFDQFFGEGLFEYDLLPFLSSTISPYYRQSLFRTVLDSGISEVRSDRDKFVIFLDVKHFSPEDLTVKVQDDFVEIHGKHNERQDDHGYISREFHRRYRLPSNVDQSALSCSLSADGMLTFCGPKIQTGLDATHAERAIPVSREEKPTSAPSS
# B2: Alpha-crystallin A chain (Homo sapiens), P02489 (parent)
# chain: B1 partner
# partner: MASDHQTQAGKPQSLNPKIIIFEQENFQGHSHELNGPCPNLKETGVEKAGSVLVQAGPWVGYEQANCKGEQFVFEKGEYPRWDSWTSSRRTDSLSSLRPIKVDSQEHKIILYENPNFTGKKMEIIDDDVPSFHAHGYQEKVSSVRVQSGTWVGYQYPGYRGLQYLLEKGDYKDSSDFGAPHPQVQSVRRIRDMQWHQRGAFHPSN
# B3: Alpha-crystallin A chain (Homo sapiens), P02489 (parent)
# chain: B1 partner
# partner: B1 chain
# B4: Alpha-crystallin A chain (Homo sapiens), P02489 (parent)
# chain: B1 partner
# B5: Alpha-crystallin B chain (Homo sapiens), P02511 (parent)
# chain: B1 chain
# partner: B2 partner
# B6: Gamma-crystallin C (Homo sapiens), P07315 (parent)
# chain: MGKITFYEDRAFQGRSYETTTDCPNLQPYFSRCNSIRVESGCWMLYERPNYQGQQYLLRRGEYPDYQQWMGLSDSIRSCCLIPQTVSHRLRLYEREDHKGLMMELSEDCPSIQDRFHLSEIRSLHVLEGCWVLYELPNYRGRQYLLRPQEYRRCQDWGAMDAKAGSLRRVVDLY
# partner: B1 chain
# B7: Gamma-crystallin C (Homo sapiens), P07315 (parent)
# chain: B6 chain
# partner: B2 partner
# Variants of: B1
# Settings: with cryaa_human CRYAA
row,Variant,effect of a mutation on the interaction
1,R120G,decreasing interaction

# Variants of: B2
# Settings: with crbb2_human CRYBB2, P43320
row,Variant,effect of a mutation on the interaction
1,R116C,disrupting interaction

# Variants of: B3
# Settings: with cryab_human CRYAB
row,Variant,effect of a mutation on the interaction
1,R116C,increasing interaction

# Variants of: B4
# Settings: with crgc_human CRYGC
row,Variant,effect of a mutation on the interaction
1,R116C,disrupting interaction

# Variants of: B5
# Settings: with crbb2_human CRYBB2, P43320
row,Variant,effect of a mutation on the interaction
1,R120G,increasing interaction

# Variants of: B6
# Settings: with cryab_human CRYAB
row,Variant,effect of a mutation on the interaction
1,T5P,disrupting interaction

# Variants of: B7
# Settings: with crbb2_human CRYBB2, P43320
row,Variant,effect of a mutation on the interaction
1,T5P,disrupting interaction
